A short description of series [1]: anti-TRAIL-R1 immunofluorescence after His-hTRAIL, reconstituted DKO cells. Conditions: glycan lost; control: TRAIL-R1 WT.
Series [2] is described as follows: immunofluorescence of receptor clustering after TRAIL, U2OS. Conditions: glycan lost; control: TRAIL-R1 WT.
Series [3] is described as follows: DISC immunoprecipitation and immunoblot, reconstituted DKO cells. Conditions: glycan lost; control: TRAIL-R1 WT. A general note: A western blot detects proteins with antibodies after separation by electrophoresis.
Series [4] can be described thus: DISC immunoprecipitation and immunoblot, U2OS. To be noted: glycan lost; control: TRAIL-R1 WT.
Series [5] addresses UL141-GPI (GPI-anchored ectodomain of HCMV UL141, FIX strain) (human cytomegalovirus (FIX strain)) (UniProt Q6RJQ3). The series can be described thus: flow cytometry on cells. For orientation: A flow cytometer gives signals particle by particle.
The nature of series [6]: surface flow cytometry with MD5-1, B16. Conditions: glycan lost; control: WT mTRAIL-R.
Series [7] is described as follows: receptor clustering upon ligand binding, B16 and U2OS. To be noted: glycan lost; control: WT mTRAIL-R.
Series [8] in a line: receptor internalization. Conditions: glycan lost; control: WT mTRAIL-R.

The results in this text go back to PMC5344210.

Sequence of UniProt Q6RJQ3 (Q6RJQ3 37-278): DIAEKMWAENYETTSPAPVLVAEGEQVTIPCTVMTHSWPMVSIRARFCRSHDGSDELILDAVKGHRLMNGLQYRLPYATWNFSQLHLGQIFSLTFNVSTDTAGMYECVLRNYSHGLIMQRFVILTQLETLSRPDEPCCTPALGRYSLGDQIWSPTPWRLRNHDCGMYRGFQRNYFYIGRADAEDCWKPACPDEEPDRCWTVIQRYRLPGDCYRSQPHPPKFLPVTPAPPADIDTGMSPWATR

On to TRAIL-R1: N156A, for which the oligomerisation result in series [1] and in series [2] was “decreases” each time. Moreover, the “other: DISC formation (caspase-8/-10 recruitment)” value in series [3] and in series [4] was “decreases” each time.

In turn, “TRAIL-R1-Fc N156A (N-glycosylation-deficient human TRAIL-R1 fused to human Fc IgG1) (from UniProt O00220 24-239) (Fc fusion)” came in with a fold higher binding affinity than glycosylated TRAIL-R1 in series [5] of 5 fold.

B1: mTRAIL-R (mouse TRAIL receptor): N99A (protein)
parent chain: MEPPGPSTPTASAAARADHYTPGLRPLPKRRLLYSFALLLAVLQAVFVPVTANPAHNRPAGLQRPEESPSRGPCLAGQYLSEGNCKPCREGIDYTSHSNHSLDSCILCTVCKEDKVVETRCNITTNTVCRCKPGTFEDKDSPEICQSCSNCTDGEEELTSCTPRENRKCVSKTAWASWHKLGLWIGLLVPVVLLIGALLVWKTGAWRQWLLCIKRGCERDPESANSVHSSLLDRQTSSTTNDSNHNTEPGKTQKTGKKLLVPVNGNDSADDLKFIFEYCSDIVPFDSWNRLMRQLGLTDNQIQMVKAETLVTREALYQMLLKWRHQTGRSASINHLLDALEAVEERDAMEKIEDYAVKSGRFTYQNAAAQPETGPGGSQCV
Take B1: in series [6], the expression_or_secretion result is listed as “no change”.

B2: mTRAIL-R (mouse TRAIL receptor): N122/150A (protein)
parent chain: MEPPGPSTPTASAAARADHYTPGLRPLPKRRLLYSFALLLAVLQAVFVPVTANPAHNRPAGLQRPEESPSRGPCLAGQYLSEGNCKPCREGIDYTSHSNHSLDSCILCTVCKEDKVVETRCNITTNTVCRCKPGTFEDKDSPEICQSCSNCTDGEEELTSCTPRENRKCVSKTAWASWHKLGLWIGLLVPVVLLIGALLVWKTGAWRQWLLCIKRGCERDPESANSVHSSLLDRQTSSTTNDSNHNTEPGKTQKTGKKLLVPVNGNDSADDLKFIFEYCSDIVPFDSWNRLMRQLGLTDNQIQMVKAETLVTREALYQMLLKWRHQTGRSASINHLLDALEAVEERDAMEKIEDYAVKSGRFTYQNAAAQPETGPGGSQCV
As for B2, the expression_or_secretion result in series [6] was “no change”.

B3: mTRAIL-R (mouse TRAIL receptor): N99/122A (protein)
parent chain: MEPPGPSTPTASAAARADHYTPGLRPLPKRRLLYSFALLLAVLQAVFVPVTANPAHNRPAGLQRPEESPSRGPCLAGQYLSEGNCKPCREGIDYTSHSNHSLDSCILCTVCKEDKVVETRCNITTNTVCRCKPGTFEDKDSPEICQSCSNCTDGEEELTSCTPRENRKCVSKTAWASWHKLGLWIGLLVPVVLLIGALLVWKTGAWRQWLLCIKRGCERDPESANSVHSSLLDRQTSSTTNDSNHNTEPGKTQKTGKKLLVPVNGNDSADDLKFIFEYCSDIVPFDSWNRLMRQLGLTDNQIQMVKAETLVTREALYQMLLKWRHQTGRSASINHLLDALEAVEERDAMEKIEDYAVKSGRFTYQNAAAQPETGPGGSQCV
Regarding B3, the oligomerisation entry in series [7] is reported as “decreases”. Also, the expression_or_secretion result in series [6] is listed as “no change”. The localisation_or_trafficking entry in series [8] is “increases”.

B4: mTRAIL-R (mouse TRAIL receptor): N99/122/150A (protein)
parent chain: MEPPGPSTPTASAAARADHYTPGLRPLPKRRLLYSFALLLAVLQAVFVPVTANPAHNRPAGLQRPEESPSRGPCLAGQYLSEGNCKPCREGIDYTSHSNHSLDSCILCTVCKEDKVVETRCNITTNTVCRCKPGTFEDKDSPEICQSCSNCTDGEEELTSCTPRENRKCVSKTAWASWHKLGLWIGLLVPVVLLIGALLVWKTGAWRQWLLCIKRGCERDPESANSVHSSLLDRQTSSTTNDSNHNTEPGKTQKTGKKLLVPVNGNDSADDLKFIFEYCSDIVPFDSWNRLMRQLGLTDNQIQMVKAETLVTREALYQMLLKWRHQTGRSASINHLLDALEAVEERDAMEKIEDYAVKSGRFTYQNAAAQPETGPGGSQCV
For B4, the oligomerisation result in series [7] is given as “decreases”. Moreover, in series [6], the expression_or_secretion entry is given as “decreases”.

B5: mTRAIL-R (mouse TRAIL receptor): N99/150A (protein)
parent chain: MEPPGPSTPTASAAARADHYTPGLRPLPKRRLLYSFALLLAVLQAVFVPVTANPAHNRPAGLQRPEESPSRGPCLAGQYLSEGNCKPCREGIDYTSHSNHSLDSCILCTVCKEDKVVETRCNITTNTVCRCKPGTFEDKDSPEICQSCSNCTDGEEELTSCTPRENRKCVSKTAWASWHKLGLWIGLLVPVVLLIGALLVWKTGAWRQWLLCIKRGCERDPESANSVHSSLLDRQTSSTTNDSNHNTEPGKTQKTGKKLLVPVNGNDSADDLKFIFEYCSDIVPFDSWNRLMRQLGLTDNQIQMVKAETLVTREALYQMLLKWRHQTGRSASINHLLDALEAVEERDAMEKIEDYAVKSGRFTYQNAAAQPETGPGGSQCV
On to B5, for which, in series [6], the expression_or_secretion result is on record as “no change”.
